Measurements from publication PMC3873459.

Experiments:
[1] = biological target: pfiT, tag-less (GST removed with PreScission protease) (Pseudomonas fluorescens); assay: AUC; sedimentation velocity, pfiT alone at 3.6 µM, 20°C, 50,000 rpm, 10 mM Hepes pH 7.4, 150 mM NaCl, 2 mM DTT; c(s) and c(M) distributions (SEDFIT)
[2] = biological target: pfiT, tag-less (GST removed with PreScission protease) (Pseudomonas fluorescens); assay: AUC; sedimentation equilibrium, pfiT alone at 9 µM and 18 µM, 20°C, 20,000/25,000/30,000 rpm, HBS; global fit with monomer-dimer model (SEDPHAT); dimer to monomers
[3] = biological target: recombinant HLA-DR1 protein bound to a hemagglutinin (HA) peptide; assay: pull-down

Substance: pfiT, tag-less (GST removed with PreScission protease) (natural protein)
- stoichiometry N [1]: 2
- Kd [2]: 0.15 µM
- IC50 [3]: 47 µM
